The source of these data is article PMC3516508 (PLoS ONE, 2012).

Data set [1] deals with the molecule itself. In words: SEC; Superdex 200HR 10/300GL, protein concentration raised above 0.2 up to 4 mg/ml, buffer A, equilibrated 2 h at 4°C, run at 16°C; tetramer to dimers. (In general: Size exclusion chromatography separates by hydrodynamic size, large species first.)
Data set [2] deals with the molecule itself. Description: SEC; Superdex 200HR 10/300GL, protein at 0.2 mg/ml, buffer A (20 mM sodium phosphate, 100 mM NaCl, 1 mM DTT, 1 mM EDTA, pH 7.2), equilibrated 2 h at 4°C, run at 16°C; dimer.
Data set [3] concerns the molecule itself. In words: SEC; βA3-crystallin alone, run beside the mixtures of Figure 5A; concentration not given.

Positions count from the first letter of the chain named. In names and notes the source's numbering stands.

By stoichiometry N is commonly meant a count of units in the complex or per binding partner.

B1: wild type (WT) human βB2-crystallin (natural protein, UniProt P43320 1-205, looked up)
chain: MASDHQTQAGKPQSLNPKIIIFEQENFQGHSHELNGPCPNLKETGVEKAGSVLVQAGPWVGYEQANCKGEQFVFEKGEYPRWDSWTSSRRTDSLSSLRPIKVDSQEHKIILYENPNFTGKKMEIIDDDVPSFHAHGYQEKVSSVRVQSGTWVGYQYPGYRGLQYLLEKGDYKDSSDFGAPHPQVQSVRRIRDMQWHQRGAFHPSN
notes: Cloned BamHI/HindIII into pET28a; Oligomeric state depends on concentration (dimer at 0.2 mg/ml, dimer and tetramer at higher concentrations); also called WT βB2-crystallin; BB2; source: E. coli Rosetta (DE3), pET28a, purified (Ni-NTA, Superdex 200)
As for B1, the “stoichiometry N” value in data set [1] was determined as 4; in data set [2] it was 2.

B2: A2V mutated βB2-crystallin (natural protein, human, UniProt P43320 1-205, looked up)
chain: B1 chain with A2V
notes: human βB2-crystallin with the congenital cataract-linked A2V mutation, made by site-directed mutagenesis with primers from the start codon to the stop codon; Same vector and tag as m1; also called A2V mutant; source: E. coli Rosetta (DE3), pET28a, purified (Ni-NTA, Superdex 200)
Take B2: the entries for the “stoichiometry N” value in data set [1] and in data set [2] were 4 and 2, respectively.

B3: βA3-crystallin (natural protein, UniProt P05813 1-215, looked up)
chain: METQAEQQELETLPTTKMAQTNPTPGSLGPWKITIYDQENFQGKRMEFTSSCPNVSERSFDNVRSLKVESGAWIGYEHTSFCGQQFILERGEYPRWDAWSGSNAYHIERLMSFRPICSANHKESKMTIFEKENFIGRQWEISDDYPSLQAMGWFNNEVGSMKIQSGAWVCYQYPGYRGYQYILECDHHGGDYKHWREWGSHAQTSQIQSIRRIQQ
notes: βA3-crystallin; also called BA3/BA1
For the protein B3, in data set [3], the “stoichiometry N” value was 2.
